Experimental data as given in the DeepSol protein solubility set.

assay: soluble on expression in E. coli; label from the status in PepcDB or PDB records

Row | Sequence | soluble on expression in E. coli
1 | MGSDKIHHHHHHMTKETATISQLQQDIINNSQKGFPLTSQPYKTIAEQLADVNIVTNELEVFQAIDDLNSQEVLSRVGPVFDHKKAGASTLAALAVPAKDLDKIAGIVNQFDQVNHNYGREHVYNLWFVVTASDMVALNSTIVNIELLTGLPVLVLPMEASYHIDLAFSINVTGIESPTSNQENRPVTFDNNDTTSLTDIEKTALRRAIEKGLPTHLFPYQAIAQQLALSEQQVLMQISLWQEEGLIRRFGLVIKHRKLGYDANAMVVWNIPNENMDAIALKLAKCAPVSLCYQRPRRLPDWPYNLFCMIHGTDRSLVLQQISQITEQLGLESIEKDVLFSFKAYKQHGARYFKTNSKKAKTNNISAGKTENNNDMKKQGQAHG | not soluble
2 | MGSDKIHHHHHHMLTQDQDQKQRNWKPIIKAFEAVLGTNGVVQRREELITYECDGLTSYRQRPAVAVLPRTTEQVAAVVKICNQYAVPFIARGSGTGLSGGALPSEDSVLIVTSLMRQILNVDLDNQRIVVQPGVINSWVTQTVSGAGFYYAPDPSSQIICSIGGNVAENSGGVHCLKYGVTTNHVLGLKIVTPEGEIVDLGGQIPEAPGYDLTGIFVGSEGTLGIATEITLRILKSAESICVLLADFTSVEAAGATVSDIISAGIIPGGMEMMDNVSINAVEDVVATNCYPRDATAILLVEIDGLDVEVAVNKQRVTDICQQNGARSVTSASDPETRLKLWKGRKAAFAAAGHLSPDYYVQDGVIPRTQLPYVLQEIEALSQKFGYPIANVFHAGDGNLHPLILFDNSISGALEKVEELGGEILKLCVRVGGSISGEHGIGADKKCYMPDMFSDVDLETMQWIRQVFNPQGLANPGKIFPTPRTCGEAANAIKNQHFEGVERF | not soluble
3 | MMARVEKLRELMKENNLQGFLVTSPYNLRYLTNFTGTTGLAMITLDKAFFVTDFRYTEQAAEQATGFTIVKNTGHIFDEVADLAERLQLDNLAFEETQVSFADYSLLEEILPCELVPVMGLIEELREVKDEEEVAIIEKACAIADQGFAFVLEMIKPGMTEIEVANQLDFFMRSKGASGVSFETIVASGLRSAMPHGVASHKVIEKGELITLDFGCYYEGYVSDMTRTFAIGSIQPKLKEIYDIVLEAQLKVLAEAKPGLTGIQLDAIARDHIASYGYGDAFGHSTGHGIGLEIHEGPNVSFRADKQFVPGNVITDEPGIYLPGIGGVRIEDDLLITAEGNRVLTHAPKELIIL | not soluble
4 | MGSDKIHHHHHHMIHLSPNDLPVGAPLPWSLLDGDGNLVLGSGNVIPDTRDVALVFRHGELCRLEADSGGDPQDDPLPRGPLGLQVGTLLHVKQPGDNSRAAASRLIGFVEQGLFMTWPQLGGRDLPVQAGDTLLLRGFSGRVIHSFTSTITAVCRSPFRYLVLSAPSQLDQMPVRKAARVPTRMAAYMTQSQESFQEADQDAFSAEMANGAARLVMVSDLSTGGAQIHAAGPAPVIGSRVQLRFRLRTASLDSEIVADAWVRAVTSDTADAEFPSFGISFDVLGEREMTLLQCFIYEQLLTSSGLGVHR | not soluble
5 | MSLGIVIYGTRIIYPAEHKEVMVQLMNQGNRSSLMQAWIDDGDTSLPPEKIQVPFMLTPPVAKIGANSGQQVKIKIMPNKLPTNKESIFYLNVLDIPPNSPEQEGKNALKFAMQNRIKLFYRPAGIAPVNKVTFKKLLVNRSGNGLVIKNDSANWVTISDVKANNVKVNYETIMIAPLESQSVNVKSNNANNWHLTIIDDHGNYISDKEGHHHHHH | soluble
6 | MIEYTSGDILRCEADALVNTVNCVGVMGRGIALQFKNMYPANFKAYEAACKREEVQPGRMFVFETKQLTPPRLIINFPTKRHWRGKSRIEDIEAGLVDLVNVIRDKNIRSIAIPPLGAGLGGLDWKEVRPRIEHALGELEGVQVIVYEPNGAPASDKMAHVREVPKMTSGRAALVELMQRYLSGLLDPFVTLLEVHKLMYFMQEAGEPLRLDYIKHHYGPYAKNLRHVLNAIEGHLIAGYADGGDAPDKPLSLVPGAVAEAKSFLDQHEISRARFERVTRLVEGFESPYGLELLATVHWVIHREGATQSDSVKRQIYQWNDRKRQFTQRQLVIAEERLRSQGWLSPETTFTYMAGDPLEHHHHHH | not soluble
7 | MSEIEELVCIEASVTRKSTSNTVEIRESRRNKVTLGSSDSPAFPTPHLFLKNIVSFDEQSMYNLLYPRLQDPNLCSILSFKIAFEAKRVPGPLYISYDVTLTPQIFEEPDMETCGLCLLEEQHLFDMPNCAHVFHGDCIDKWLSTSNNCPLCGVEIMDDDE | soluble
8 | MTVTDLSKKPLLLLDHVTMQFGGLVAVDDFTNEIREGELVGLIGPNGAGKTTVFNVITGIYTPTKGRIVFNDIDITGLRPYQITHLGIARTFQNIRLFSDMTVLENVLVAQHHVLSNPDADRILVKHGKPRKGHGRFWFWRAVTKIGYLKKEKEMVERAKDLIKRVGLEKVMYEKASSLPYGEQRKLEIARALATEPKLILLDEPAAGMNPKETEDLMEFIKQIRKDFNLTVLLIEHDMKVVMGICERIIVMDYGRIIAEGTPKEIQNDPRVIEAYLGREWESV | soluble
9 | MGSDKIHHHHHHMGLGHEQGFGAPCLKCKENCEGFELHFWRKICRNCKCGQEEHDVLLSNEEDRKVGRLFEDTKYTTLIAKLKSDGIPMYKRNVMILTNPVAAKKNVSINTVTYEWAPPVQNQALARQYMQMLPKEKQPVAGSEGAQYRKKQLAKQLPAHDQDPSKCHELSPKEVKEMEQFVKKYKSEALGVGDVKFPSEMNAQGDKVHNPAGDRHAPAAVASKDKSAESKKTQYSCYCCKHTMNEGEPAIYAERAGYDKLWHPACFICSTCGELLVDMIYFWKNGKLYCGRHYCDSEKPRCAGCDELIFSNEYTQAENQNWHLKHFCCFDCDHILAGKIYVMVTDKPVCKPCYVKNHAVVCQGCHNAIDPEVQRVTYNNFSWHASTECFLCSCCSKCLIGQKFMPVEGMVFCSVECKRMMS | soluble
10 | MAHHHHHHMIVKVFDYIYISNVYNANDIYELIKLNIGGVLTCFDCTCIEWCHHNDTNVTNKIFYKDIFVNTKKDLIKCDVPIITNKSVNSDIIGGTHQINNYYNEQNNNYHDNTYKEFTQTHKTNIDPSQIKSDHINEERKEHYDYIIFPSDIINNTQCNNNNLKDYIKSMLILKEDAYIDFDVIHMD | not soluble
11 | VDNVFIVGHRKLDMDALGSAVGMQFFAGNIIENSFAVYNPDEMSPDIERAIERLQADGKTRLISVSQAMGLVTPRSLLVMVDHSKISLTLSKEFYEQFQNVIVVDHHRRDDDFPDNAILTFIESGASSAAELVTELIQFQNAKKCLNKIQASVLMAGIMLDTKNFSTRVTSRTFDVASYLRSKGSDSVEIQNISATD | not soluble
12 | MSLLNENDIEQLTLQRLQSLGWEYRYGKDLPVHEGKFARGDLSGVVFVEQLREAVRKLNPQLPESAVDSVVKSATKSDIGDLVVRNQTFYKLLRDGVRVEYTQNGEQKIEMVRLVDFEHWGNNRFVAVNQLEIRSRKGGKRIPDIIGFVNGLPLVVFELKNPLRESADLLQAFNQFETYKDEIAELFVYNQALIISDGIVARLGSLSADFQRFTPWKVVDEKNKSARLYFDDELQSLLNGLMQPEDLLDYIRYFVLFERDSVGKTIKKIAAYHQYYGVNEAVDSTIWATSEKGDRRIGVMWHTQGSGKSISMLFYAGKLLAQPELKNPTIVVVTDRNDLDGQLFQTFSSGKDLIKQTPQQVEDRDQLRQLLAQNEVGGVFFTTIQKFALNEEESRFPILNERNNIIVISDEAHRSQYGFTQKLHNGKFQTGYARHLRDALPNASFIGFTGTPISLEDKDTQDVFGRYVSIYDLQDAVEDGATVPIVYDDARQIRLNKKDHDALFAEIDALLEEEPSTSLRLREKLLGSQERLIELAADFVQHFAKRNEVVDSKAMMVVSSRQICVDLYNQIIALHPEWHSDNINEGAIKIVMTGSASDTPEMQKHIYSKQEKQTLERRFKDPNDPLKVVIVRDMWLTGFDAPCCNTMYLDKPMKGHNLMQAIARVNRVFANKSRENGGLIVDYVGLAKELRAATQQYTNSTGKGQLAEDVQSVFFKMKEQLEFIRTLFATPIEGKTFDVQAALEKDNPNDLLMAIRFAANHILSLDQLSFDGKAHEQHWFNKKETEPRKKAFLKTAGLVKKGYMLCGTLAEVEPYNQEIAFYDAVRAILTKREQKGTGTNERQILLKKLVNQTVYSEGVIDLFDLLEKPQPQISLLSEEFLQTVKNSPTKNLWVSAMERYLASEIKVKSGTNLTLQKDFERRLKEALNQYHNHNLTVVEILDELFKMSQDFQERLALGKKLGLTKEELAFYEALSQNQSAKDLMGDEVLSKLAKEITETLRKSVTIDWQYKEAVRARIRLLVRRALQKYKYPPDKQEEAVTYVIKQAEEIAEDLTGLEGHHHHHH | soluble
13 | GPGSMLLPRTDSHDPDANDADPRSSSSAPSVSAPALSFTTTADALASTPLSNTNPCAAYTWLPDTRSTAPPDATTRALAYNAYSPPSTAASSATPPPTSSSTAPSTTTVRPPVITVTRATPDTTSTDRTSRRPDSTSTGAYGEDCEPGRYTSGVDLAATSRESVTVSTDPAGNVPVSTSAPFSAST | soluble
14 | MSLREIVWVHSQRIAPYKTLILNELRYYPLELDPTPFNALVFTSKNAVFSLLETLNNSPKLKTLQNIPAYALSEPTAKTLQDHHFKVAFIGKKAHGKEFAQEILPLLKGKSVLYLRAKEIASSLDTILLEHGIDFKQAVVYENKLKHLTLSEQNALKPKEKSVLIFTAISHAKAFLHYFEFLENYTAISIGNTTALYLQEQGIPSYIAKKPSLEACLELALNLKSEGHHHHHH | soluble
15 | GPGSMTELVPPEAIRFANGEPLCAYHECYRCFDGRDILFRLVNVEKKQWFFYNDTADTIAHVRAVFYPGSVIRPLQRADMHVIPGPTGVADETCSIEVTLDIQPGFTESFIEGEHKGFHLEFRTETAPTKEVVFEYRRPMVPYDKIYRCFKNGNGLLFRLVDERVRQWFFYNDTRDLMMKVSVTFANSAEVRPLGCTALGAPHADTAPESVVYTLLIAPGCTEPFIEGNPVTYTLEFAAEPVDAPVTPVLEEPVQYLHGSPDVAVIPHQTHVFKCFKEHGNGLLFRVVDDVNTIWAFYNDTPDYVMTANMRYPSTSDIRLAPGVQVIADSEREGGFVAAVEVLPLATVPFLVGSPEQYELAFAATPVAPLTPSPTTSPEPSSPPQLADAADAAATVPPALPVPEEAPVYCNSGPDLTVMPNIDEVYKCFKDYGNGLVFRLVDKVQRRWAFYNDTTDIVALVRVQFSPGAHIQPLGHTVLGCDLESGSVLHELRVNPLETALFVEGDVDIFTTKFVAEEIQT | soluble
16 | MAHHHHHHMKALKLFTNRICPFCQRVLITAKEKRVTLEEVEVPLGDDMPQWYKELNPRETVPMLQVDGKKCMIESDLISRYIDRISSPENALIGSSPYQRHRVEFFLSEIGDLVKAYFGLVRDPFNEEKRKSVDHNTAYIEGIIAEHQGDGPYFLDDTFSMAEVMVVPFLACFRPVLSYYCGYDIFHEAPRLKKMYVTSMQRTTVKETISKPEEYIIGFKSKVPKSHVTWSLAPGYVLFVNKYSPFSDRPRLACALKNIDLPMLEIDLKQLPSWFRWFNQRETVPTLLTPRGTYVHESQLIVHYLDDGFPEHGPALLPKDADGSYHVRFVESNVDYFMDAMYSLIKDPKNTNAKEEFDWAAGELEKLLAEHQFGEGPFFGGATMNAADVSLLPMLVHLKACTPDLTEGQDLLANYKLLAAAAEAGLTSEAGKKVFLSLSEYSSIYKTFLRPSS | soluble
17 | MSLTDIRDHRDMLTVHHLNNSRSQRVLWLLEELDTPYEIKRYQRQPDMMAPKELRAVHPLGKSPVITDNGNTIAESGAIIEYIVGTYGNGRLIPPPNTPERLRYTYWLHYAEGSAMPPLLLKLLFSMMPQRAPALVRPLVKMVASGALTGFVDPQLKLHMDYWESELGKAAYFAGDEFTAADIQMSFPLEAAAARGGLDQRYPKAQAWLERIHARPAYNRALEKGGPYEIGKAEGHHHHHH | soluble
